# Measurements reported in US20190374506.
# Tested on: Flag-PTEN
substance,measurement,value
WW domain containing E3 ubiquitin protein ligase 1 (WWP1),"in vitro ubiquitination of Flag-PTEN (E1, E2, ubiquitin; western blot with anti-PTEN antibody), WWP1 alone",incubation of WWP1 alone only slightly triggered PTEN poly-ubiquitination
same,"in vitro ubiquitination of Flag-PTEN, WWP1 and NEDD4-1 both present","in the presence of both WWP1 and NEDD4-1, PTEN was robustly K27-linked poly-ubiquitinated"
